The numbers were not newly measured in article doi:10.1101/2024.07.26.605324, which cites them from elsewhere.

As usually defined, the pKa is the negative logarithm of the acid dissociation constant.

One data set has as its target His27 (UniProt position 27, AWTIGHLNQIK). Nature of the data set: NMR. The note with it: 243–263 K; membrane-bound tetramer, wild type with both His19 and His27 present.
The next data set has as its target His19 (UniProt position 19, ILSALHFMAWT). The data set can be described thus: NMR. The following applies: 243–263 K; membrane-bound tetramer, wild type with both His19 and His27 present.

Take “Influenza B virus matrix protein 2 (BM2) proton channel (Influenza B virus)”: the results for the pKa in the data set with His27 and in the data set with His19 were 7.9 and 4.2, respectively.
